Source: article PMC6039492, “Oligomerization of a G protein-coupled receptor in neurons controlled by its structural dynamics” (Scientific Reports, 2018)
Several values for one entry are separate records, joined by “and”; a condition that tells them apart may be missing. Equal values may be shown once.

Experiments:
[1] = biological target: the molecule itself; test: two-photon scanning number and brightness (sN&B) fluctuation microscopy; live cultured rat hippocampal neurons, SNAP-tag labelled with Alexa488, with agonist and PAM (10 nM LY379268 + 3 μM BINA) during labelling and imaging; numbers for 90-600 subunits/Veff
[2] = biological target: the molecule itself; test: two-photon scanning number and brightness (sN&B) fluctuation microscopy; live cultured rat hippocampal neurons, SNAP-tag labelled with Alexa488, incubated with 150 μM CuP, bound to antagonist (400 nM LY341495); 90-600 subunits/Veff; apparent stoichiometry (lower with CuP)
[3] = biological target: the molecule itself; test: two-photon scanning number and brightness (sN&B) fluctuation microscopy; live cultured rat hippocampal neurons, SNAP-tag labelled with Alexa488, with antagonist (400 nM LY341495) during labelling and imaging; numbers for 90-600 subunits/Veff
[4] = biological target: the molecule itself; test: two-photon scanning number and brightness (sN&B) fluctuation microscopy; live cultured rat hippocampal neurons, SNAP-tag labelled with Alexa488, incubated with 150 μM CuP for the last 10 min of labelling, imaged in the absence of ligand; 90-600 subunits/Veff; apparent stoichiometry (lower with CuP)
[5] = biological target: the molecule itself; test: two-photon scanning number and brightness (sN&B) fluctuation microscopy; live cultured rat hippocampal neurons, cell-surface SNAP-tagged receptor labelled with Alexa488, imaging buffer pH 7.3, no ligand (basal); numbers for expression of 90-600 subunits/Veff; brightness normalised to monomeric Alexa488

B1: metabotropic glutamate receptor type 2 (mGlu2), wild type, with a SNAP-tag fused to the extracellular N-terminus (HA-ST-mGlu2) (receptor, rat, UniProt P31421 19-872, looked up)
chain: EGPAKKVLTLEGDLVLGGLFPVHQKGGPAEECGPVNEHRGIQRLEAMLFALDRINRDPHLLPGVRLGAHILDSCSKDTHALEQALDFVRASLSRGADGSRHICPDGSYATHSDAPTAVTGVIGGSYSDVSIQVANLLRLFQIPQISYASTSAKLSDKSRYDYFARTVPPDFFQAKAMAEILRFFNWTYVSTVASEGDYGETGIEAFELEARARNICVATSEKVGRAMSRAAFEGVVRALLQKPSARVAVLFTRSEDARELLAATQRLNASFTWVASDGWGALESVVAGSERAAEGAITIELASYPISDFASYFQSLDPWNNSRNPWFREFWEERFHCSFRQRDCAAHSLRAVPFEQESKIMFVVNAVYAMAHALHNMHRALCPNTTHLCDAMRPVNGRRLYKDFVLNVKFDAPFRPADTDDEVRFDRFGDGIGRYNIFTYLRAGSGRYRYQKVGYWAEGLTLDTSFIPWASPSAGPLPASRCSEPCLQNEVKSVQPGEVCCWLCIPCQPYEYRLDEFTCADCGLGYWPNASLTGCFELPQEYIRWGDAWAVGPVTIACLGALATLFVLGVFVRHNATPVVKASGRELCYILLGGVFLCYCMTFVFIAKPSTAVCTLRRLGLGTAFSVCYSALLTKTNRIARIFGGAREGAQRPRFISPASQVAICLALISGQLLIVAAWLVVEAPGTGKETAPERREVVTLRCNHRDASMLGSLAYNVLLIALCTLYAFKTRKCPENFNEAKFIGFTMYTTCIIWLAFLPIFYVTSSDYRVQTTTMCVSVSLSGSVVLGCLFAPKLHIILFQPQKNVVSHRAPTSRFGSAAPRASANLGQGSGSQFVPTVCNGREVVDSTTSSL
modifications: Alexa488 (BG-Alexa488) covalently on the SNAP-tag
notes: metabotropic glutamate receptor 2 (mGlu2), rat, wild type; HA-tag and SNAP-tag inserted just after the signal peptide; pRK5 plasmid, CMV promoter exchanged for the synapsin-1 promoter; also called mGlu2 receptor; wild type receptor; source: cultured rat hippocampal neurons, transfected (Lipofectamine 2000), on live cells; not shown: SNAP-tag, N-terminal, kept
stoichiometry N [1]: 4 subunits/complex
stoichiometry N [2]: 3 subunits/complex
stoichiometry N [3]: 3.7 subunits/complex
stoichiometry N [4]: 1.7 subunits/complex
stoichiometry N [5]: 2.2 subunits per complex and 1.66 subunits/complex
